{
  "source": "patent US20120117670A1",
  "about": "(U3 PHARMA, published 2012)",
  "key": {"[1]": {"biological_target": "T1, human receptor tyrosine kinase AXL (human, UniProt P30530 26-894)", "T1 construct": "also called hAXL; human AXL on NIH3T3-AXL cI.7, RatI-AXL cI.2 and human cancer cell lines", "T1 sequence": "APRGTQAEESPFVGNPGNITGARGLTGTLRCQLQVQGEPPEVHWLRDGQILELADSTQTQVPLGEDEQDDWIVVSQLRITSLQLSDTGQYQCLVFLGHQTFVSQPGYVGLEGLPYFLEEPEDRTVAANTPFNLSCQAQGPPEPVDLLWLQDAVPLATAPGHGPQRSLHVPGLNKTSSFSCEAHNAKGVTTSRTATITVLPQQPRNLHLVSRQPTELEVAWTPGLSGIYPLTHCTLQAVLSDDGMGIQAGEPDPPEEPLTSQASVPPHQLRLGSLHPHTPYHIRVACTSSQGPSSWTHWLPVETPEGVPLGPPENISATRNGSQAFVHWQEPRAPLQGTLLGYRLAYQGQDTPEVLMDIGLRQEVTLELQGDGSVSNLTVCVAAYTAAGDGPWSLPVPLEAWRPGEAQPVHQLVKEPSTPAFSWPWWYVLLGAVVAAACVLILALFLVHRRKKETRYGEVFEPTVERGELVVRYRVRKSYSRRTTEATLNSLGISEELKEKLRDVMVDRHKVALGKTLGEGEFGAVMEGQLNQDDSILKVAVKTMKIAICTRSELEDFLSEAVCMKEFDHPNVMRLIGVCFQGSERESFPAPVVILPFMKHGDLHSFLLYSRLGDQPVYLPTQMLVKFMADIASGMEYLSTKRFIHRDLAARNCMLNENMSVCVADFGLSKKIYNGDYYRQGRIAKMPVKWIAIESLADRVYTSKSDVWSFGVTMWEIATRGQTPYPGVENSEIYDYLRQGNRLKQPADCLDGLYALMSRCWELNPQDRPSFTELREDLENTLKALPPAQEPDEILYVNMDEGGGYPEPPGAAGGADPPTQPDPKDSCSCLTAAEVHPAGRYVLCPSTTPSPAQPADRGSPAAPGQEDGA", "experiment": "FACS Scatchard on human AXL overexpressing NIH3T3 cells; apparent KD (KDapp)", "protocol": "Human AXL overexpression NIH3T3 cells were harvested by incubation with 10 mM EDTA in PBS and resuspended at 6 million cells per ml in FACS buffer (PBS pH 7.4, 3% FCS, 0.1% NaN3). In a round-bottom microtiter plate, 100 μl of cell suspension were added to 100 μl of antibody solution containing antibodies 11B7, 11D5, ch11B7-IgG1, ch11B7-IgG2, ch11D5-IgG1 or ch11D5-IgG2 at concentrations between 40 and 0.002 μg/ml (266 and 0.01 nM) in FACS buffer. Antibody binding was allowed to proceed for 2 hours on ice. Then, cells were washed twice with 250 μl FACS buffer per well, and resuspended in 200 μl of secondary antibody (anti-rat-PE; Jackson) diluted 1:50 in FACS buffer. After 45 minutes of incubation, cells were again washed twice in FACS buffer and resuspended in […] PBS for FACS analysis. Analysis was carried out on a Beckman-Coulter FACS FC500. To determine the apparent affinity constant KDapp, mean fluorescence values were plotted against the ratio of mean fluorescence and the corresponding antibody concentration ([M]). The calculated KDapp resulted from the inverse slope of the straight line are listed below: […]"}, "[2]": {"biological_target": "T2, Human AXL-Fc (R&D Systems, #154-AL) (human, UniProt P30530 26-451)", "T2 construct": "Bought reagent; also called human AXL-Fc fusion protein; human AXL-Fc protein; not shown: Fc part of the bought fusion protein", "T2 sequence": "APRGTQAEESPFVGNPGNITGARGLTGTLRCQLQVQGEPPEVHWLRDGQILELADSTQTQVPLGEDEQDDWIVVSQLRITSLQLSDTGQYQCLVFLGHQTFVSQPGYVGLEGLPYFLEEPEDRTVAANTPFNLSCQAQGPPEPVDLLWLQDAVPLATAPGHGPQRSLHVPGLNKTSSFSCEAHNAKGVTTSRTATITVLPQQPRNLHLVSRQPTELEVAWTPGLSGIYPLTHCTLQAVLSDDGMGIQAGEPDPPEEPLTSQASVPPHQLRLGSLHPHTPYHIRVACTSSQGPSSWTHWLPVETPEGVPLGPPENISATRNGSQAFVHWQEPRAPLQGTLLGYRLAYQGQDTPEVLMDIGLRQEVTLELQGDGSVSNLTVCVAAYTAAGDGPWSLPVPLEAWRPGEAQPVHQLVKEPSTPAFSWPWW", "experiment": "ELISA on plate-adsorbed human AXL-Fc (1 ug/ml), 5-fold antibody dilution series, AP-conjugated goat anti-human IgG, fluorescent substrate (Example 13)"}, "[3]": {"biological_target": "T3, NHis-hAXL26-131 (human AXL single IG domain) (human, UniProt P30530 33-138)", "T3 construct": "Made in E. coli; tag kept", "experiment": "ELISA on plate-adsorbed human AXL IG-domain fragment (1 ug/ml), antibody at 0.04 ug/ml, fluorescent substrate (Example 16)", "protocol": "Then, each solution was dispensed in the amount of […] to an Immuno Plate (manufactured by Nalge Nunc International K.K., #437111) and left standing overnight at 4° C. to adsorb the peptide onto the plate. On the next day, the wells were washed 5 times with a PBS-T solution (PBS and 0.05% (v/v) Tween 20). Then, a solution containing skim milk (manufactured by Morinaga Milk Industry Co., Ltd.) diluted with PBS to 5% was dispensed in an amount of 100 μl/well and left standing at room temperature for 2 hours. The solutions in the wells were removed, and the wells were washed 5 times with a PBS-T solution. The rat anti-human AXL monoclonal antibody #11B7 was diluted to 0.04 μg/ml with a PBS solution containing 0.5% skim milk. Then, the solution was dispensed in amount of 100 μl/well and left standing at room temperature for 2 hours. The wells were washed 5 times with a PBS-T solution. […] Then, a fluorescent substrate solution (manufactured by Roche Diagnostics K.K., #11681982001) was added in the amount of 100 μl/well to perform fluorescence reaction. The fluorescence intensity on the human AXL-IG domain-adsorbed plate was measured 15 minutes after the addition of the fluorescent substrate solution using a SpectraMax M5 (manufactured by Molecular Devices Corp.). […]"}, "[4]": {"biological_target": "T2, Human AXL-Fc (R&D Systems, #154-AL)", "experiment": "ELISA on plate-adsorbed human AXL-Fc (1 ug/ml), 5-fold antibody dilution series, AP-conjugated goat anti-human IgG, fluorescent substrate (Example 14)"}},
  "data": [
    {"binder": "chimeric anti-AXL antibody ch11B7-IgG1 (antibody, V domains shown, Rat/human chimera, human IgG1/kappa; also called chm11B7; chimeric anti-AXL mAb #11B7) VH: EVQLQESGPGLVKPSQSLSLTCSVTGYSITSNYWGWIRKFPGDKMEWMGYITYSGSTSYNPSLKSRISITRDTSKNQFFLQLNSVTSEDTATYYCAITTFYYWGQGVMVTVSS VL: DIQMTQAPSSLPASLGDRVTITCRASQDIGNYLRWFQQKPGKSPRLMISGATNLAAGVPSRFSGSRSGSDYSLTISSLESEDMADYYCLQSKESPWTFGGGTKLELKR", "values": [
      {"measurement": "Kd", "setting": "[1]", "value": 0.6, "unit": "nM"},
      {"measurement": "EC50 (read off the curve)", "setting": "[2]", "value": "~0.02", "unit": "µg/mL"}
    ]},
    {"binder": "rat anti-human AXL monoclonal antibody #11B7 (antibody, rat IgG1, V domains shown, Rat IgG1/kappa from hybridoma; also called I11B7; rat anti-AXL antibody 11B7) VH: EVQLQESGPGLVKPSQSLSLTCSVTGYSITSNYWGWIRKFPGDKMEWMGYITYSGSTSYNPSLKSRISITRDTSKNQFFLQLNSVTSEDTATYYCAITTFYYWGQGVMVTVSS VL: DIQMTQAPSSLPASLGDRVTITCRASQDIGNYLRWFQQKPGKSPRLMISGATNLAAGVPSRFSGSRSGSDYSLTISSLESEDMADYYCLQSKESPWTFGGGTKLELKR", "values": [
      {"measurement": "Kd", "setting": "[1]", "value": 0.38, "unit": "nM"},
      {"measurement": "binding result", "setting": "[3]", "value": "no binding (tested: 0.04 ug/ml)"}
    ]},
    {"binder": "chimeric anti-AXL antibody ch11D5-IgG1 (antibody, V domains shown, Rat/human chimera, human IgG1/kappa; also called chm11D5; human chimeric antibody) VH: EVQLQESGPGLVKPSQSLSLTCSVTGYSITSNYWGWIRKFPGNKMEWIGHITNSGNTTYNPSLKSRISISRDTSRNQFFLQLNSVTTEDTATYYCAKGAFDYWGQGVMVTVSS VL: DIQMTQSPSSMSTSLGDRVTITCRASQDIGNYLSWFQQKVGKSPRRMIYGAIKLAVGVPSRFSGSRSGSDYSLTISSLESEDMAIYYCLQYIQFPLTFGSGTKLELKR", "values": [
      {"measurement": "Kd", "setting": "[1]", "value": 0.4, "unit": "nM"},
      {"measurement": "EC50 (read off the curve)", "setting": "[4]", "value": "~0.01", "unit": "µg/mL"}
    ]},
    {"binder": "rat anti-human AXL monoclonal antibody #11D5 (antibody, rat IgG2a, V domains shown, Rat IgG2a/kappa from hybridoma; also called III11D5) VH: EVQLQESGPGLVKPSQSLSLTCSVTGYSITSNYWGWIRKFPGNKMEWIGHITNSGNTTYNPSLKSRISISRDTSRNQFFLQLNSVTTEDTATYYCAKGAFDYWGQGVMVTVSS VL: DIQMTQSPSSMSTSLGDRVTITCRASQDIGNYLSWFQQKVGKSPRRMIYGAIKLAVGVPSRFSGSRSGSDYSLTISSLESEDMAIYYCLQYIQFPLTFGSGTKLELKR", "values": [
      {"measurement": "Kd", "setting": "[1]", "value": 0.81, "unit": "nM"}
    ]}
  ]
}
